Experimental data reported in PMC3093132.

Target: hExo1 catalytic domain D173A (Homo sapiens, UniProt Q9UQ84 1-352, D173A)
Experiment: crystal structure

Sequence of hExo1 catalytic domain D173A (Q9UQ84 1-352 D173A): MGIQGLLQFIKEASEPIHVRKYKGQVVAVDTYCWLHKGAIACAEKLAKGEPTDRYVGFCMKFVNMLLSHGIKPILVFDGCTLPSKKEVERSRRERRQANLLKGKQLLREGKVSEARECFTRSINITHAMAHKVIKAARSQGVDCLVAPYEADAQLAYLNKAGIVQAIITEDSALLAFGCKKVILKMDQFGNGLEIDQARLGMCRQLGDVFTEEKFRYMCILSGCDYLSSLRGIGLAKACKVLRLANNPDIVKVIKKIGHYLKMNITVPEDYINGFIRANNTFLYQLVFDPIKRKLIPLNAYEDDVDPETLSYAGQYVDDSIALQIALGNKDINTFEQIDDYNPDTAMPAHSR

B1: 5'-recessed-end substrate (gap mimic) (dsDNA)
DNA 1: TCGACTAGCG
DNA 2: CGCTAGTCGACAC
modifications: 5' phosphate on strand 1
binding result: binds
